Data published in publication PMC5383425, “Differential CLE peptide perception by plant receptors implicated from structural and functional analyses of TDIF-TDR interactions” (PLoS ONE, 2017).

B1: Tracheary Element Differentiation Inhibitory Factor (TDIF) peptide [modified: hydroxyproline at 4 and 7; hydroxyproline at 4 and 7] [Arabidopsis thaliana] / extracellular domain of A. thaliana TDR (residues 30-642) [modified: … (parent)
chain 1: HEVPSGPNPISN
chain 2: LKFSPQLLSLLSLKTSLSGPPSAFQDWKVPVNGQNDAVWCSWSGVVCDNVTAQVISLDLSHRNLSGRIPIQIRYLSSLLYLNLSGNSLEGSFPTSIFDLTKLTTLDISRNSFDSSFPPGISKLKFLKVFNAFSNNFEGLLPSDVSRLRFLEELNFGGSYFEGEIPAAYGGLQRLKFIHLAGNVLGGKLPPRLGLLTELQHMEIGYNHFNGNIPSEFALLSNLKYFDVSNCSLSGSLPQELGNLSNLETLFLFQNGFTGEIPESYSNLKSLKLLDFSSNQLSGSIPSGFSTLKNLTWLSLISNNLSGEVPEGIGELPELTTLFLWNNNFTGVLPHKLGSNGKLETMDVSNNSFTGTIPSSLCHGNKLYKLILFSNMFEGELPKSLTRCESLWRFRSQNNRLNGTIPIGFGSLRNLTFVDLSNNRFTDQIPADFATAPVLQYLNLSTNFFHRKLPENIWKAPNLQIFSASFSNLIGEIPNYVGCKSFYRIELQGNSLNGTIPWDIGHCEKLLCLNLSQNHLNGIIPWEISTLPSIADVDLSHNLLTGTIPSDFGSSKTITTFNVSYNQLIGPIPSGSFAHLNPSFFSSNEGLCGDLVGKPCNSDRFNAGNADIDG

Variants of: B1
Test: ITC
Settings: with extracellular domain of A. thaliana TDR (residues 30-642) [modified: N-glycosylated at N111, N356, N378, N471 and N525 (one GlcNAc visible on each in the struct); parent: 103 nM

Variant	Kd [nM]
chain 1 HEVPSGPAPISN [chain 1 N8A]	308
chain 1 HEVPSGPNPISA [chain 1 N12A]	4700
chain 1 AAAPSGPNPISN [chain 1 H1A E2A V3A]	252000
chain 1 REVPSGPNPISN [chain 1 H1R]	329
chain 1 AEVPSGPNPISN [chain 1 H1A]	11800
chain 1 HEVPSTPNPISN [chain 1 G6T]	2080
chain 1 HEVPSAPNPISN [chain 1 G6A]	1440
chain 1 HEAPSGPNPISN [chain 1 V3A]	1400
chain 1 HAVPSGPNPISN [chain 1 E2A]	327
chain 1 HRVPSGPNPISN [chain 1 E2R]	543
chain 1 HEVPSGPNPASN [chain 1 I10A]	641

Same assay, conditions: with extracellular domain of A. thaliana TDR (residues 30-642) [modified: N-glycosylated at N111, N356, N378, N471 and N525 (one GlcNAc visible on each in the struct); parent: 1

Variant	ratio to parent
chain 1 HEVPSGPNPISA [chain 1 N12A]	45.6
chain 1 AAAPSGPNPISN [chain 1 H1A E2A V3A]	2450
chain 1 HEVPSGPNPASN [chain 1 I10A]	6.2

Same assay, conditions: with Tracheary Element Differentiation Inhibitory Factor (TDIF) peptide [modified: hydroxyproline at 4 and 7, parent: 103 nM

Variant	Kd [nM]
chain 2 W324A	862
chain 2 R392A R394A	306
chain 2 R109A F132A S133A S158A Y159A	3240
chain 2 S276A	455
chain 2 F250A	307
chain 2 F250A F252A	887
chain 2 F252A	787
chain 2 Y205A	1650

Same assay, conditions: with Tracheary Element Differentiation Inhibitory Factor (TDIF) peptide [modified: hydroxyproline at 4 and 7, parent: 1

Variant	ratio to parent
chain 2 F252A	7.6
chain 2 Y205A	16
